Patent US20110243954A1 (published 2011)

Molecular target: T1, von Willebrand factor (human, UniProt P04275 764-2813)
T1 construct: also called vWF; VWF
Experiment: inhibition ELISA of ristocetin-induced binding of vWF to platelets
Description: After 3 times washing with phosphate buffered saline (PBS), wells were incubated for 1 hour at room temperature (RT) with formalin fixed human platelets (Dade Behring, Newark, Del.) which were diluted two-fold in PBS or—as a blank—with PBS. Wells were washed 3 times with PBS and blocked for 2 hours at RT with PBS containing 4% bovine serum albumin (BSA, Sigma). A dilution series of compound was prepared in human plasma and was preincubated for 30 min at RT with 1.5 mg/mL ristocetin (abp, NJ, USA) after which the mixture was transferred to the coated wells. […] For the analysis of the data, the absorbance values were corrected using the absorbance of the respective blanks.

binding result | Binder
binds | 12A2 sv1-AAA-12A2 sv1-9GS-59C2 (vWF-0055) (VHH, bivalent anti-vWF Nanobody with one C-terminal 59C2 peptide) DVQLVESGGGLVQPGGSLRLSCAASGRTFSYNPMGWFRQAPGKGRELVAAISRTGGSTYYPESVEGRFTISRDNAKRTVYLQMNSLRAEDTAVYYCAAAGVRAEQGRVRTLPSEYTFWGQGTQVTVSSAAAEVQLVESGGGLVQPGGSLRLSCAASGRTFSYNPMGWFRQAPGKGRELVAAISRTGGSTYYPESVEGRFTISRDNAKRTVYLQMNSLRAEDTAVYYCAAAGVRAEQGRVRTLPSEYTFWGQGTQVTVSSGGGGSGGGSRDWDFDVFGGGTPVGG
binds | 12A2 sv1-AAA-12A2 sv1-9GS-59C2-9GS-59C2 (vWF-0056) (VHH, bivalent anti-vWF Nanobody with a C-terminal tandem repeat of 59C2) DVQLVESGGGLVQPGGSLRLSCAASGRTFSYNPMGWFRQAPGKGRELVAAISRTGGSTYYPESVEGRFTISRDNAKRTVYLQMNSLRAEDTAVYYCAAAGVRAEQGRVRTLPSEYTFWGQGTQVTVSSAAAEVQLVESGGGLVQPGGSLRLSCAASGRTFSYNPMGWFRQAPGKGRELVAAISRTGGSTYYPESVEGRFTISRDNAKRTVYLQMNSLRAEDTAVYYCAAAGVRAEQGRVRTLPSEYTFWGQGTQVTVSSGGGGSGGGSRDWDFDVFGGGTPVGGGGGGSGGGSRDWDFDVFGGGTPVGG

Molecular target: T2, human serum albumin (human, UniProt P02768 25-609)
T2 construct: HSA used in ELISA and SPR was bought (Sigma); also called HSA
Experiment: phage competition ELISA: signal of well with 2 µM HSA competitor / signal of well with no competitor
Description: (§1) A competition ELISA was performed to determine the relative binding affinity for the selected phage clones. 96-well Nunc Maxisorp plates were coated with 2 μg/ml HSA in coating buffer at 4° C. Plates were blocked with SuperblockT20 (Pierce) for 1 h at room temperature. The microtiter plates were washed with wash buffer (PBS, 0.05% Tween 20).
After respectively three and four selection rounds, monoclonal phage were screened for binding on HSA, in the manner described in Example 2. […] The ratio of phage binding was calculated by the following equation: fluorescence signal of well with 2 μM competitor/fluorescence signal of well with no competitor (Table VI).

Ratio 2 µM/0 µM HSA | Binder
0.69 ratio | AARYWDFDVFGGGTPVGG [59F2]
0.87 ratio | AARSWDFDVFGGGTPVGG [59H12]

Second part, the binder before the results:

Binder | Ratio 2 µM/0 µM HSA
AARYWDYDVFGGGTPVGG (also called EXP56E4) [PMP56E4] | 0.82 ratio
AARDWDFDVFGGGTPVGG (also called EXP59C2) [59C2] | 0.91 ratio

Molecular target: T2, human serum albumin
Experiment: solution binding competition ELISA: phage pre-incubated with 1 µM HSA, unbound phage captured on coated HSA; signal with competitor / without
Description: as §1
Unbound phage was captured by transferring 100 μl of the well mixture to the HSA coated Maxisorp plate and incubating at room temperature for 30 minutes. The plate with captured phage was washed with PBS-0.05% Tween 20 five times. Bound phages were detected with anti-M13 and goat-anti mouse IRDye conjugate. The amount of IRDye bound was measured on Odyssey (LI-COR Biosciences). The ratio of phage binding was calculated by the following equation: fluorescence signal of well with competitor/fluorescence signal of well with no competitor (Table III).

Ratio 1 µM/0 µM HSA | Binder
0.47 ratio | AALYDDYDVFGGGTPVGG (also called 01C7; PMP26A3 (in the text)) [PMP56A3]
0.43 ratio | AAFYDDYDVFGGGTPAGG (also called 01G7; PMP54H5 (in the text)) [PMP56H5]
0.42 ratio | AALYDDYDVFGGGTPAGG [01B3]
